Values joined by “and” are separate entries in the source; they are usually repeats but may differ in a detail not shown here. Equal values may be shown once. Read-outs that look alike come from different tables or passages of the source. One block for each substance: values may come before it.
Legend:
[1] = target: amyloid β peptide (Aβ) of the TBS-soluble fraction of human Alzheimer's disease brain (human (endogenous in brain)); experiment: SDS-PAGE and immunoblot
[2] = SEC
[3] = target: amyloid β peptide (Aβ) of the TBS-soluble fraction of human Alzheimer's disease brain (human (endogenous in brain)); experiment: SEC
[4] = split reporter; settings: split reporter (BiFC, NanoBiT)
[5] = target: split-luciferase tagged Aβ; experiment: SEC + split reporter
[6] = target: split-luciferase tagged Aβ; experiment: split reporter
[7] = target: split-luciferase tagged Aβ; experiment: split reporter; remark: listed apart in the source
[8] = target: split-luciferase tagged Aβ; experiment: split reporter; remark: listed apart in the source

stoichiometry N [1]: 2
stoichiometry N [3]: 2 and 3
Substance: amyloid β peptide (Aβ) of the TBS-soluble fraction of human Alzheimer's disease brain
percent of LMW Aβ eluting in the HMW Aβ fraction after incubation without apoE [2]: 0.5 ± 0.7 without apoE

Substance: split-luciferase tagged Aβ
luminescence (%) after incubation with SEC fraction 6 of AD brain [4]: 141.8% in AD fraction 6
luminescence (%) after incubation with SEC fraction 6 of control brain [4]: 99.8% in control fraction 6
luminescence (%) after incubation with SEC fraction 7 of AD brain [4]: 198.4% in AD fraction 7
luminescence (%) after incubation with SEC fraction 7 of control brain [4]: 163.2% in control fraction 7
luminescence (%) after incubation with SEC fraction 8 of AD brain [4]: 256.4% in AD fraction 8
luminescence (%) after incubation with SEC fraction 8 of control brain [4]: 230.8% in control fraction 8
luminescence (%) after incubation with SEC fraction 9 of AD brain [4]: 207.6% in AD fraction 9
luminescence (%) after incubation with SEC fraction 9 of control brain [4]: 202.6% in control fraction 9

stoichiometry N [5]: 2
luminescence (%) after incubation with fraction 8 of APOEε3/ε3 AD brains [6]: 168%
luminescence (%) after incubation with fraction 8 of APOEε4/ε4 AD brains [6]: 193%
luminescence of cell lysate (%) with apoA-II co-expressed [6]: 100%
luminescence of cell lysate (%) with apoE2 co-expressed [6]: 89.9%
luminescence of cell lysate (%) with apoE3 co-expressed [6]: 96.4%
luminescence of cell lysate (%) with apoE4 co-expressed [6]: 92.5%
luminescence of conditioned medium (% of control) with apoA-I co-expressed [6]: 132%
luminescence of conditioned medium (% of control) with apoA-II co-expressed [6]: 89.3%
luminescence of conditioned medium (% of control) with apoE3 co-expressed [6]: 279%
luminescence of conditioned medium (%) with apoA-II co-expressed [6]: 101%
luminescence of conditioned medium (%) with apoE3 co-expressed [6]: 229%
luminescence of conditioned medium (%) with apoE4 R61T co-expressed [6]: 228%
luminescence of conditioned medium (%) with apoE4 co-expressed [6]: 261%
luminescence of conditioned medium (% of control) with apoE3 NTF co-expressed [7]: 114%
luminescence of conditioned medium (% of control) with apoE3 co-expressed [7]: 218%
luminescence of conditioned medium (% of control) with apoE CTF co-expressed [7]: 206%
luminescence of conditioned medium (% of control) with apoA-II co-expressed [8]: 91.7%
luminescence of conditioned medium (% of control) with apoE3 NTF co-expressed [8]: 113%
luminescence of conditioned medium (% of control) with apoE3 co-expressed [8]: 274%
luminescence of conditioned medium (% of control) with apoE 192-242 co-expressed [8]: 142%
luminescence of conditioned medium (% of control) with apoE 192-272 co-expressed [8]: 185%
luminescence of conditioned medium (% of control) with apoE 231-299 co-expressed [8]: 223%
luminescence of conditioned medium (% of control) with apoE 243-299 co-expressed [8]: 235%
luminescence of conditioned medium (% of control) with apoE CTF co-expressed [8]: 239%
Substance: split-luciferase tagged Aβ (peptide)
